The DeepSol protein solubility set

Assay: soluble on expression in E. coli; label from the status in PepcDB or PDB records

Soluble on expression in E. coli, not soluble:
MGSDKIHHHHHHMNTLANWKKFLLVAVIICFLVPIMTKAEIAEADTSSELIVSEAKNLLGYQYKYGGETPKEGFDPSGLIQYVFSKADIHLPRSVNDQYKIGTAVKPENLKPGDILFFKKEGSTGTVPTHDALYIGDGQMVHSTQSKGVIITNYKKSSYWSGTYIGARRIAADPATADVPVVQEAEKYIGVPYVFGGSTPSEGFDCSGLVQYVFQQALGIYLPRSAEQQWAVGEKVAPQNIKPGDVVYFSNTYKTGISHAGIYAGAGRFIQASRSEKVTISYLSEDYWKSKMTGIRRFDNLTIPKENPIVSEATLYVGEVPYKQGGVTPETGFDTAGFVQYVYQKAAGISLPRYATSQYNAGTKIEKADLKPGDIVFFQSTSLNPSIYIGNGQVVHVTLSNGVTITNMNTSTYWKDKYAGSIRVQ
MGSDKIHHHHHHMNTRLKDTSGHSPIDPRILDEAAAWLMQLHASTVTDMERNAWEQWRLRSPQHRQAWERAEQLMNKMGGLPPALSMAALTHPGGNNRRAAIKKLALLMTALPASWAAWRVTPWEAWMAEYRTMVSEQREIELADGSQVRLNTATSIDVRFNAVQRLIVLHTGEILIQTAADNAVTPRPFQVLTAEGRLYALGTRFTVRQGEERSHVAVFDGAVAIHPKSGDSGVAQVLHAGNKTVFTAEAIEVSRPADDTDIAWTQGMLLADKMHLTDFTDELSRYRQGIVRCDPVLADLRISGAFPIRDTDRTLAMLQATYPVRIVYRTPYWVTLVPR
MGSDKIHHHHHHMNVENQTPNVDHQEIAKFEAIASRWWDLEGEFKPLHRINPLRLGYISQRAEGLFGKKVLDVGCGGGILAESMAREGADVTGLDMGAEPLQVARLHALESGVTVDYVQETVEAHADAHSGLYDVVTCMEMLEHVPDPQSVVQACAKLVKPGGHVFFSTINRNAKAWMMAVIGAEYILKMVPRGTHDIKKFIRPAELMRWVDDTPLRERHITGLHYNLLTDRFKLGPNVDVNYMLHTSHDKQC
MGSDKIHHHHHHMNWDDVRIFLAVARAGQILGAARRLELNHATVSRRIAALEDALRTKLFRRLTTGSELTPAGERFLDIAERMEGEMIAARSTISGEGDDISGTVRIGAPDGFGVAFLARRLGELTALHRELTIQLVPVPRSFSLSRREADIAITVERPTEGRLVAGKLVDYSLGLFASRAYADANGLPKTAAELGRHPLIGYVPDLIVSPSLDYAAEFSADWRTSFAISSALGQAEAVRSGAGIGILHTFVARSMPELVAVDAVAPIRRAYWLVYHESVRPLRRIQIVAGFITKAVERERSLFL
MGSDKIHHHHHHMNYKITTLAENSVYGKGLQGEHGLSLLVEAGEHKVLFDTGASDLFLRNARLLGLDLSDVEYVVLSHGHRDHTGGLYAFLKMNSVAKVVCKREVFRKKFKNERENGMLHPEALDKSRFWLVDETTEIVPGVFAFPDVKVVDRNDTHFEHFFTEIEGEMRPDTFEDELALVLKGEKSLSVLSACSHRGITNIIRAVQNAFPGLGLKLVMGGFHIHNAEEEKFNVISAFLGMKLPKRLGVCHCTGIDKYALFRQQFNDRVFYNYTGWVETI
MGSDKIHHHHHHMNYVKSKQRVADHGEVFTPAWLVEAMIDLVKDETERIDARFLEPACGSGNFLVPILQRKLAAVERKFGKSNFEKQHYALFAVMCTYGIELLADNIAECRANMLEIFADYLTLDESDELYRAAIYVLSQNLVHGDALKMRTSDGQPIAFAEWGYLGKGKFQRRDFRLDSLAMSSTFSVEGSLFAHLGKHEIFTPTRTYPPMTVSELAARAAEANL
MGSDKIHHHHHHMPETAHGVPVSTVKPDGAAMALKSKLLLIILDGVPYRNWRRLMGNLEGWVQSGEARVWKMRSVLPSTSACCYASIHTGVSPQVHGILSNENRFRVGQPDIFSEVSKAGGKTGAVTHSYWSEFFRSYPFDLVEDMEYDEPGGPITHGRFHTMTGYNARNQMTPSDVDLFATLTMLTKRHGIDYGILHTCTLDSMGHRFGNDCHEMDHAVYAMDGMLAAFLPGWIAAGYEVMVTADHGQTDRGHHGGHDDEMQDFALYYFGQGQGPETDTLLDQLQLAPTVLSRLGVPVPATMKAKPFLS
